Assay results from US20020146750A1 (published 2002).
Changes are numbered by the printed parent chain.

Assays:
[1] = molecular target: T1, MUC1 15-mer Ac-PDTRPAPGSTAPPAL-NH2; test: SPR (BIAcore 2000), 1:1 Langmuir at steady state, 50 RU peptide; 15-mer surface; Fab
T1 construct: coated on a biotin chip
T1 peptide: Ac-PDTRPAPGSTAPPAL-NH2
Procedure: (§1) The selected PH1-IgG1 and the Fab PH1 antibodies were evaluated for their binding characteristics by surface plasmon resonance on a BIAcore 2000 apparatus (BIAcore AB, Uppsala, Sweden). A biotin chip was coated with a MUC1 15-mer, containing the minimal PH1 epitope, PAP (Ac-PDTRPAPGSTAPPAL-NH₂ (SEQ ID NO:40) (see Example 2, above), 50 RU and 320 RU) and 60-mer (NH₂-([…])₃-COOH (SEQ ID NO:8) (von Mensdorff-Pouilly et al., Tumor Biol., 19: 186-195 (1998), 50 RU) in HBS-EP buffer (Pharmacia) a surface, blocked with biotin (15 RU), was used as a negative control. The Fab PH1 and PH1-IgG1 were injected in HBS-EP buffer. To minimize rebinding of the antigen binding molecules, a speed of 30 μl/sec was used. Affinity calculation was performed with computer programs provided by BIAcore (BIAEvaluation-version3, BIACore AB). […] The affinity for the PH1 Fab antibody was calculated according to a 1:1 Langmuir stoichiometry at steady state (Chi²: 50.6). Because of the two binding places on the PH1-IgG1, the avidity was calculated as an apparent avidity constant using 1:1 Langmuir determination with mass transfer limitation (Chi²: 42).
(§2) The affinity of the antibody was determined using BIAcore. Affinities of the Fab PH1 were calculated to be an average of 1.4 μM for binding to the 15-mer and 60-mer MUC1 peptide antigen coated surfaces.

[2] = molecular target: T1, MUC1 15-mer Ac-PDTRPAPGSTAPPAL-NH2; test: SPR (BIAcore) Kd assay on MUC1 15-mer
Procedure: (§3) The selected PH1 and the affinity-matured antibodies were evaluated for affinity by surface plasmon resonance (SPR) on a BIAcore 2000 apparatus (BIAcore AB, Uppsala, Sweden). Channels of a biotin chip were coated with a MUC1 15-mer, containing the minimal PH1 epitope, PAP, (Ac-PDTRPAPGSTAPPAL-NH₂, (SEQ ID NO:40) 50 RU or 320 RU) or a 60-mer (NH₂-([…])₃-COOH (i.e., containing three copies of SEQ ID NO:8 (von Mensdorff-Pouilly et al., Tumor Biol., 19: 186-195 (1998), 50 RU) in HBS-EP buffer (Pharmacia). One surface was blocked with biotin (15 RU) and used as a negative control. The antibodies were injected in HBS-EP buffer. To minimize rebinding of the antigen binding fragments, the flow speed was 30 μl/sec. Affinity calculation was performed with the BIA-evaluation software provided by the BIAcore. The affinities of the Fabs were calculated according to a 1:1 stoichiometry at steady state.
(§4) The CDR3 variants were extensively tested in BIAcore for the kinetics of the MUC1 peptide interaction. […] Using this off-rate screening with Fabs in the periplasmic extract of E. coli cultures, the clones in Table 9 as well as many more were screened for improvement in off-rate. […] To get accurate measurements, a Kd assay on the BIAcore was used with the MUC1 15-mer (there was no difference in the kinetics of interaction when the MUC1 60-mer was used, data not shown). […]

[3] = molecular target: T2, MUC1 60-mer peptide NH2-(…)3-COOH (biotinylated in the ELISAs and selections); test: ELISA, soluble Fab, biotinylated MUC1 60-mer; relative signal
T2 construct: also called biotinylated MUC1 60-mer
Procedure: as §3, with “Soluble Fabs were produced as described (Roovers et al., Br. J. Cancer, 78: 1407-16 (1998)). ELISAs were performed as described by Henderikx et al. (Cancer Res., 58: 4324-4332 (1998)), except the biotinylated MUC1 60-mer was used. The selected” for “The selected”

[4] = molecular target: T1, MUC1 15-mer Ac-PDTRPAPGSTAPPAL-NH2; test: SPR (BIAcore 2000), apparent avidity constant, 1:1 Langmuir with mass transfer limitation, low density surface; 15-mer, low density surface; IgG1 avidity
Procedure: as §1, §2

[5] = molecular target: T2, MUC1 60-mer peptide NH2-(…)3-COOH; test: phage ELISA on MUC1 antigen (biotinylated MUC1 60-mer)
[6] = molecular target: T2, MUC1 60-mer peptide NH2-(…)3-COOH; test: SPR (BIAcore), MUC1 60-mer peptide antigen; the 3.5-fold end is tied to 5C8 by paragraph 206; best variant, 5C8; Fab on MUC1 peptide chip
Procedure: as §3, §4

B1: PH1 Fab antibody (Fab, V domains shown)
VH: QVQLVQSGGGLVQPGGSLRLSCAASGFTFRSNAMGWVRQAPGKGLEWVSGISGSGGSTYYADSVKGRFTISRDNSKNTLYLQMNSLRAEDTAVYYCAKHTGGGVWDPIDYWGQGTLVTVSS
VL: EIVLTQSPLSLPVTPGEPASISCRSSQSLLHSNGYTYLDWYLQKPGQSPQLLIYSGSHRASGVPDRFSGSVSGTDFTLRISRVEAEDVGVYYCMQGLQSPFTFGPGTKVDIKR
notes: Human Fab from a naive phage library; also called Fab PH1; WT-PH1
B1 showed a Kd [1] of 1.4 µM.

B2: 7F9 (Fab, V domains shown)
VH: B1 VH with D109G
VL: B1 VL
notes: PH1 Fab variant; also called clone 7F9
B2 was tested, and the “fold improvement of affinity over wild type PH1 Fab” value [2] was < 2 fold and the binding result [3] was “binds”.

B3: PH1-IgG1 (antibody, V domains shown)
VH: B1 VH
VL: B1 VL
notes: Fully human gamma-1/kappa IgG1 from CHO-K1 clone 7F; FITC-labeled or biotinylated in some assays; also called recombinant human MUC1-specific IgG1; PH1-IgG1-FITC
In the case of B3, the Kd [4] is reported as 0.0083 µM.

B4: clone 23 (unselected SPIKE library) (Fab, V domains shown)
VH: B1 VH with H99P, V104A
VL: B1 VL
In the case of B4, the “ELISA OD450” value [5] is reported as 0.373 OD450.

B5: 11F9 (Fab, V domains shown)
VH: B1 VH with A97T, D109N
VL: B1 VL
notes: PH1 Fab variant
B5: binds [3].

B6: clone 21 (unselected SPIKE library) (Fab, V domains shown)
VH: B1 VH with K98N, H99Q
VL: B1 VL
With B6 the “ELISA OD450” value [5] was 0.108 OD450.

B7: 11G9 (Fab, V domains shown)
VH: B1 VH with D109G
VL: B1 VL
notes: PH1 Fab variant
B7: binds [3].

B8: clone 20 (unselected SPIKE library) (Fab, V domains shown)
VH: B1 VH with K98S, G103R, V104G
VL: B1 VL
B8 was tested, and the “ELISA OD450” value [5] was 0.109 OD450.

B9: clone 22 (unselected SPIKE library) (Fab, V domains shown)
VH: B1 VH with K98R, D109Y
VL: B1 VL
B9 was tested, and the “ELISA OD450” value [5] was 0.663 OD450.

B10: 5C8 (Fab, V domains shown)
VH: B1 VH with G102R, D109G
VL: B1 VL
notes: PH1 Fab variant; also called clone 5C8
With B10 the “fold improvement of Kd over wild type PH1 Fab” value [2] was 3.5 fold and the Kd [6] was ~0.4 µM.

B11: clone 25 (unselected SPIKE library) (Fab, V domains shown)
VH: B1 VH with G102V, D106H, D109Y
VL: B1 VL
With B11 the “ELISA OD450” value [5] was 0.315 OD450.
